Data on 42 molecules can be found in article PMC10681739, “High-throughput data and modeling reveal insights into the mechanisms of cooperative DNA-binding by transcription factor proteins”.

For the data set, the target named is RUNX1 (Homo sapiens, UniProt Q01196). The data set can be described thus: gcPBM; 2 nM RUNX1. Particulars: tags: N-terminal GST (pDEST15), kept (PMC6008103); label: surface-attached array probe.
Chain of RUNX1 (Q01196 whole entry): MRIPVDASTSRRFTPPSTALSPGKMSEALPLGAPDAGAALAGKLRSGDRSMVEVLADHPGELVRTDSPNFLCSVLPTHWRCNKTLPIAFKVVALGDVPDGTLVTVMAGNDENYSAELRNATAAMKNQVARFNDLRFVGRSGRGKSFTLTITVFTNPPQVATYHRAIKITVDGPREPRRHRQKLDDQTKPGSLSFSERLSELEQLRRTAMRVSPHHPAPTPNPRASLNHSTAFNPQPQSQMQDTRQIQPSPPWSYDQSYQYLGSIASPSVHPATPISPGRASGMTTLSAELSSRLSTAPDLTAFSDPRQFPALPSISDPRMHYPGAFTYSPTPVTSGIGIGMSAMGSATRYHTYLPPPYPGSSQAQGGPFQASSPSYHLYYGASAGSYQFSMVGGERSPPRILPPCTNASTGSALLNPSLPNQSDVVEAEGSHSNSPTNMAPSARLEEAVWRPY

B1: Table S3 B row 594 (dsDNA)
DNA 1: CCCCTCCCCACACCACAACAAACCTGATCCTTGCGC
DNA 2: GCGCAAGGATCAGGTTTGTTGTGGTGTGGGGAGGGG
For the molecule B1, the binding signal was 1700 PBM fluorescence, median of replicate spots.

B2: Table S3 C row 128 (dsDNA)
DNA 1: GGTCCCGCCCCTGGCCGGAAGTTCTGGCGGCGGAGC
DNA 2: GCTCCGCCGCCAGAACTTCCGGCCAGGGGCGGGACC
B2: the binding signal was 714 PBM fluorescence, median of replicate spots.

B3: Table S3 C row 11 (dsDNA)
DNA 1: AAAAGCATCCCCAGACTTCCTGTTGGGAGCTCTCTG
DNA 2: CAGAGAGCTCCCAACAGGAAGTCTGGGGATGCTTTT
Take B3: the binding signal was 697 PBM fluorescence, median of replicate spots.

B4: Table S3 C row 173 (dsDNA)
DNA 1: CGCTATCGGGGCAGCAGGAAGTCGCCATCTTGAATC
DNA 2: GATTCAAGATGGCGACTTCCTGCTGCCCCGATAGCG
Take B4: the binding signal was 725 PBM fluorescence, median of replicate spots.

B5: Table S3 C row 180 (dsDNA)
DNA 1: CTGTGCAGCGTCCTCCTTCCGGGTGCAGGCGGGCCT
DNA 2: AGGCCCGCCTGCACCCGGAAGGAGGACGCTGCACAG
Take B5: the binding signal is 722 PBM fluorescence, median of replicate spots.

B6: Table S3 C row 106 (dsDNA)
DNA 1: ACCAGGCGACGATGCCGGAACGCGCAAGTACGCGAG
DNA 2: CTCGCGTACTTGCGCGTTCCGGCATCGTCGCCTGGT
Regarding B6, the binding signal was 676 PBM fluorescence, median of replicate spots.

B7: Table S3 C row 62 (dsDNA)
DNA 1: GGGAGAAGCGGGAGGCGGAACGCCCGAGGGCGCCCT
DNA 2: AGGGCGCCCTCGGGCGTTCCGCCTCCCGCTTCTCCC
Turning to B7, the binding signal was 722 PBM fluorescence, median of replicate spots.

B8: Table S3 B row 1720 (dsDNA)
DNA 1: GCCTGCGGTGTGGACTCGCATCATGTCCTCTTTCTG
DNA 2: CAGAAAGAGGACATGATGCGAGTCCACACCGCAGGC
Take B8: the binding signal is 1680 PBM fluorescence, median of replicate spots.

B9: Table S3 C row 8 (dsDNA)
DNA 1: GCCAGGCCGGCGGCGCGGAAGGTCTCCTGTGCCTGC
DNA 2: GCAGGCACAGGAGACCTTCCGCGCCGCCGGCCTGGC
Consider B9, for which the binding signal is 689 PBM fluorescence, median of replicate spots.

B10: Table S3 C row 29 (dsDNA)
DNA 1: CCGGTCTCGCGATAGCGGAAAGGGCTGTACCATCTG
DNA 2: CAGATGGTACAGCCCTTTCCGCTATCGCGAGACCGG
Regarding B10, the binding signal is 697 PBM fluorescence, median of replicate spots.

B11: Table S3 C row 170 (dsDNA)
DNA 1: ACCGGCGCGCACACGCTTCCGTGCTACGAGGCACTT
DNA 2: AAGTGCCTCGTAGCACGGAAGCGTGTGCGCGCCGGT
Consider B11, for which the binding signal was 726 PBM fluorescence, median of replicate spots.

B12: Table S3 B row 232 (dsDNA)
DNA 1: TGTTGTGTGGTTTCAGAGATACGTCCTTGGGTTGCC
DNA 2: GGCAACCCAAGGACGTATCTCTGAAACCACACAACA
With B12, the binding signal was 1750 PBM fluorescence, median of replicate spots.

B13: Table S3 B row 1078 (dsDNA)
DNA 1: ATTTGTCACCAAACCACAGAGAGGACATGATTGTAA
DNA 2: TTACAATCATGTCCTCTCTGTGGTTTGGTGACAAAT
With B13, the binding signal was 1740 PBM fluorescence, median of replicate spots.

B14: Table S3 C row 70 (dsDNA)
DNA 1: GGCCGCGCCCAGACCCGGAAGCGGGGCCGTCACGTG
DNA 2: CACGTGACGGCCCCGCTTCCGGGTCTGGGCGCGGCC
B14: the binding signal was 680 PBM fluorescence, median of replicate spots.

B15: Table S3 C row 188 (dsDNA)
DNA 1: GCAAGCGGGCCTGGGCGGATGTCTCGGGCGCGTCGG
DNA 2: CCGACGCGCCCGAGACATCCGCCCAGGCCCGCTTGC
Take B15: the binding signal is 720 PBM fluorescence, median of replicate spots.

B16: Table S3 C row 198 (dsDNA)
DNA 1: GGCAGCAGCCTTCGGCTTCCGCTTTTCGGCTTTCGC
DNA 2: GCGAAAGCCGAAAAGCGGAAGCCGAAGGCTGCTGCC
In the case of B16, the binding signal is 686 PBM fluorescence, median of replicate spots.

B17: Table S3 C row 101 (dsDNA)
DNA 1: AGTCAGAAGTTTCAGCGGAAATTGAAGCGCGGCCCT
DNA 2: AGGGCCGCGCTTCAATTTCCGCTGAAACTTCTGACT
Turning to B17, the binding signal was 665 PBM fluorescence, median of replicate spots.

B18: Table S3 C row 81 (dsDNA)
DNA 1: GGCCCATTGTCCGCGCTTCCGTTCAGGCTCCGCCTC
DNA 2: GAGGCGGAGCCTGAACGGAAGCGCGGACAATGGGCC
Consider B18, for which the binding signal was 725 PBM fluorescence, median of replicate spots.

B19: Table S3 C row 200 (dsDNA)
DNA 1: GCCCCTCACAGCCTGCTTCCGGGAGCCGGGCAGGCC
DNA 2: GGCCTGCCCGGCTCCCGGAAGCAGGCTGTGAGGGGC
With B19, the binding signal is 726 PBM fluorescence, median of replicate spots.

B20: Table S3 C row 144 (dsDNA)
DNA 1: GTTTAAGCTCAGCGCCTTCCTGGTTCTAGCGCCAGG
DNA 2: CCTGGCGCTAGAACCAGGAAGGCGCTGAGCTTAAAC
As for B20, the binding signal is 729 PBM fluorescence, median of replicate spots.

B21: Table S3 C row 178 (dsDNA)
DNA 1: TGGCTGCTACGTCGTCTTCCTGGGCGAAAGTGCCTG
DNA 2: CAGGCACTTTCGCCCAGGAAGACGACGTAGCAGCCA
On to B21, for which the binding signal is 726 PBM fluorescence, median of replicate spots.

B22: Table S3 C row 194 (dsDNA)
DNA 1: TGGGCAAGCCTTGGGCTTCCGGAGCCAAAAGGCCCA
DNA 2: TGGGCCTTTTGGCTCCGGAAGCCCAAGGCTTGCCCA
Turning to B22, the binding signal is 610 PBM fluorescence, median of replicate spots.

B23: Table S3 C row 74 (dsDNA)
DNA 1: GTCATCTCGTTGACACTTCCGCTGACCCGTGCAGTT
DNA 2: AACTGCACGGGTCAGCGGAAGTGTCAACGAGATGAC
Take B23: the binding signal was 697 PBM fluorescence, median of replicate spots.

B24: Table S3 C row 166 (dsDNA)
DNA 1: ACCCCGGGTCGGAGTGTTCCGGCCCGGCCAGCCCCG
DNA 2: CGGGGCTGGCCGGGCCGGAACACTCCGACCCGGGGT
Turning to B24, the binding signal is 724 PBM fluorescence, median of replicate spots.

B25: Table S3 C row 132 (dsDNA)
DNA 1: GAGAGACCTGGGCCACTTCCGGGAGAACCCGAGCTT
DNA 2: AAGCTCGGGTTCTCCCGGAAGTGGCCCAGGTCTCTC
On to B25, for which the binding signal is 721 PBM fluorescence, median of replicate spots.

B26: Table S3 C row 172 (dsDNA)
DNA 1: TGGCTGAGACTGAGACGGAAGGATCCTTGCGCCCAG
DNA 2: CTGGGCGCAAGGATCCTTCCGTCTCAGTCTCAGCCA
As for B26, the binding signal is 723 PBM fluorescence, median of replicate spots.

B27: Table S3 C row 26 (dsDNA)
DNA 1: GACACTGGAGGGAGCCGGAAGTACCTCGGAGTTTTA
DNA 2: TAAAACTCCGAGGTACTTCCGGCTCCCTCCAGTGTC
As for B27, the binding signal was 723 PBM fluorescence, median of replicate spots.

B28: Table S3 C row 79 (dsDNA)
DNA 1: TTGCAAGTACACCTGCATCCGGTGGCATGTTTTAGT
DNA 2: ACTAAAACATGCCACCGGATGCAGGTGTACTTGCAA
As for B28, the binding signal was 712 PBM fluorescence, median of replicate spots.

B29: Table S3 B row 3059 (dsDNA)
DNA 1: AGGCTGTGGTTATCTGCAAACAGCCCCCGTCCATCC
DNA 2: GGATGGACGGGGGCTGTTTGCAGATAACCACAGCCT
For the molecule B29, the binding signal is 1590 PBM fluorescence, median of replicate spots.

B30: Table S3 C row 27 (dsDNA)
DNA 1: TGCGCCGCGCCCCGGGTTCCGGAATGCACTCTGAAC
DNA 2: GTTCAGAGTGCATTCCGGAACCCGGGGCGCGGCGCA
For B30, the binding signal was 659 PBM fluorescence, median of replicate spots.

B31: Table S3 C row 122 (dsDNA)
DNA 1: ACCCTGAAGCCTCGCCGGAACTCGCGTCTGGGGCCA
DNA 2: TGGCCCCAGACGCGAGTTCCGGCGAGGCTTCAGGGT
For the molecule B31, the binding signal was 728 PBM fluorescence, median of replicate spots.

B32: Table S3 B row 887 (dsDNA)
DNA 1: CACCCTGCCACCTCCCTAAACTCCCCGCACAGGCCG
DNA 2: CGGCCTGTGCGGGGAGTTTAGGGAGGTGGCAGGGTG
For B32, the binding signal was 1620 PBM fluorescence, median of replicate spots.

B33: Table S3 C row 20 (dsDNA)
DNA 1: TACCTCTGTAACAGGTTTCCTGTCCCTGCCCAGCTT
DNA 2: AAGCTGGGCAGGGACAGGAAACCTGTTACAGAGGTA
With B33, the binding signal was 673 PBM fluorescence, median of replicate spots.

B34: Table S3 C row 100 (dsDNA)
DNA 1: TGGCTAGGGGCAGGGCTTCCGGCCTCGAACTTTAAC
DNA 2: GTTAAAGTTCGAGGCCGGAAGCCCTGCCCCTAGCCA
Take B34: the binding signal is 688 PBM fluorescence, median of replicate spots.

B35: Table S3 C row 138 (dsDNA)
DNA 1: GGGGCCTGTTGTAGTTTTCCTGCATTCAAAGTACCC
DNA 2: GGGTACTTTGAATGCAGGAAAACTACAACAGGCCCC
In the case of B35, the binding signal is 732 PBM fluorescence, median of replicate spots.

B36: Table S3 C row 176 (dsDNA)
DNA 1: GCCGCCATGGGGCGCTATCCGGCCCCAGCCGGGACC
DNA 2: GGTCCCGGCTGGGGCCGGATAGCGCCCCATGGCGGC
On to B36, for which the binding signal was 729 PBM fluorescence, median of replicate spots.

B37: Table S3 B row 3020 (dsDNA)
DNA 1: TTTTATCGTCCGCGAGCCCTCATCCCACAACTCTTC
DNA 2: GAAGAGTTGTGGGATGAGGGCTCGCGGACGATAAAA
Regarding B37, the binding signal was 1790 PBM fluorescence, median of replicate spots.

B38: Table S3 B row 1567 (dsDNA)
DNA 1: ACGGAGCTGTGGTTTAACGTTTCAGGTTCGTGGCTA
DNA 2: TAGCCACGAACCTGAAACGTTAAACCACAGCTCCGT
Turning to B38, the binding signal is 1650 PBM fluorescence, median of replicate spots.

B39: Table S3 C row 121 (dsDNA)
DNA 1: CACTCATTCCAGATCAGGAAGTGATCAGTGCCTCAA
DNA 2: TTGAGGCACTGATCACTTCCTGATCTGGAATGAGTG
As for B39, the binding signal is 680 PBM fluorescence, median of replicate spots.

B40: Table S3 C row 65 (dsDNA)
DNA 1: TTCACTGAACGGCTTCATCCTGTGCTTTGGGAGGCA
DNA 2: TGCCTCCCAAAGCACAGGATGAAGCCGTTCAGTGAA
For the molecule B40, the binding signal was 718 PBM fluorescence, median of replicate spots.

B41: Table S3 B row 1244 (dsDNA)
DNA 1: GGAACCCGCAGAAGCCCCGCCTCCCGTAAGCGGAGC
DNA 2: GCTCCGCTTACGGGAGGCGGGGCTTCTGCGGGTTCC
For B41, the binding signal is 1640 PBM fluorescence, median of replicate spots.

B42: Table S3 B row 116 (dsDNA)
DNA 1: GTAGTTCCTTGTCTTTCCTTCTGCCGCCGCAGGCCT
DNA 2: AGGCCTGCGGCGGCAGAAGGAAAGACAAGGAACTAC
Take B42: the binding signal was 1720 PBM fluorescence, median of replicate spots.
